In the supplement of paper PMC9170038:

Test system: MS2 coat protein
Assay: apparent KD of MS2 coat protein; designed switch direction (-1 OFF switch, 1 ON switch): -1; higher = weaker reporter binding
Method in brief: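 Transcription of designed RNA switches on Illumina chips was done by stalled E. coli RNA polymerase. SNAP-549-labelled MS2 coat protein was then titrated in doubling steps from 0.7 or 1.5 nM to 3 µM, with steps of 0.8–1.5 h at the lowest and 10–20 min at the highest concentration. The per-design median over clusters of curve-fitted normalised fluorescence is reported as apparent KD.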

[1] = input ligand: microRNA oligo, concentration not stated
[2] = Eterna round: R95, input ligand: microRNA oligo, concentration not stated

Row | Sequence | apparent KD of MS2 coat protein (input ligand: FMN 200 uM) [nM] | apparent KD of MS2 coat protein (input ligand: none) [nM] | apparent KD of MS2 coat protein [2] [nM] | further results
1 | CCGUACGGAGGAUAUACAUGAGGAUCACCCAUGUGUCCGCGCGUGGGAACACGUAAUAGUAGAAGGCCGUCCGG [jl-ex3-4.78 Brourd automod] (Eterna round: R97, puzzle: Exclusion 3) | 491 | 59.4 | – | –
2 | CCUAAACAUGAGGAUCACCCAUGUGAGGAUAUGAUGCGAAUAAAGAAAGAAGAAAGCAUCAGAAGGCACAUAGG (Eterna round: R96, puzzle: Exclusion 1) | – | – | – | apparent KD of MS2 coat protein [1]: 131 nM
3 | CCUAUGUGAGGAUAUCACUGGUCUGCUCACUAGAUGAUCAGUGAGAAGGCACAUGAGGAUCACCCAUGUCAGUG [Exclusion 4 - Mod Brourd Ex 4-3 - 53] (puzzle: Exclusion 4) | – | – | 92.9 | –
4 | CCUAUGUGAGGAUAUCACUGGUCUUCUUUUAUUUUUUACAGUGAGAAGGCACAUGAGGAUCACCCAUGUCGGUG [Ex4 - 3 - 49] (Eterna round: R96, puzzle: Exclusion 4) | 98.4 | 192 | – | apparent KD of MS2 coat protein [1]: 115 nM
5 | CCUAUGUGAGGAUAUCACUGGUCUUCUUUUAUUUUUUACAGUGAGAAGGCACAUGAGGAUCACCCAUGUCGGUG [Ex4 - 3 - 49] (puzzle: Exclusion 4) | – | – | 151 | –
6 | CCUAUGUGAGGAUAUCACUGGUCUUUUCAUUGGAUGAUUAGUGAGAAGGCACAUGAGGAUCACCCAUGUCGGUG [Ex4 - 3 - 52] (puzzle: Exclusion 4) | – | – | 34.6 | –
7 | CCUCCACAUGAGGAUCACCCAUGUGAGGAUAUCCUGCGAGGAUCAAAAGAUCCUCGUGGGAGAAGGCACAUGAA [Omei Ex1 A9] (Eterna round: R97, puzzle: Exclusion 1) | 241 | 39.3 | – | –
8 | CCUCCGUAUAAGGAUAUCGUCCAGGAAACUGGACGAGAAGGUAUGACAUGAGGAUCACCCAUGUGAAAGUGAUG [Mod of Brourd 25 - Jieux - Exclusion 6] (Eterna round: R97, puzzle: Exclusion 6) | 212 | 71.4 | – | –
9 | CCUCGACGGUAGGAUAUCGUCAAACUAUUGUGAUGAGAAGGACUGACAUGAGGAUCACCCAUGUUAACGUGAUA [Exclusion 6 - 7:b] (puzzle: Exclusion 6) | – | – | 17.1 | –
10 | CCUCGUUGGGAGGAUAUCCUUUAGAUUGGAGGAGGAGAAGGCUCGACAUGAGGAUCACCCAUGUAAAAUUUAAA [-18.7, -17.5 kcal, A 31%] (Eterna round: R97, puzzle: Exclusion 6) | 274 | 73.3 | – | –
11 | CCUCUACAUGAGGAUCACCCAUGUGAGGAUAUCUCGGAGCAACCACUUAAGGCGCUCCAGAGAAGGCACGUGUA [Erralaqu] (puzzle: Exclusion 1) | – | – | 19.5 | –
12 | CCUCUACAUGAGGAUCACCCAUGUGAGGAUAUGUUGACGAGCCAGAAAUGGCUGGUCAACAGAAGGCAUAUGUA [Exclusion 1 (Mod 2.1 solution 16 by Eternabot)] (Eterna round: R97, puzzle: Exclusion 1) | 43.7 | 23.7 | – | –
13 | CCUCUGUAAGGAUAUACGGAGACCACUGGAAUCAGUGGAAAGUAGAAGGUACAUGAGGAUCACCCAUGUGAGAA [Laveatisce] (Eterna round: R96, puzzle: Exclusion 4) | – | – | – | apparent KD of MS2 coat protein [1]: 67.9 nM
14 | CCUCUGUAAGGAUAUACGGAGACCACUGGAAUCAGUGGAAAGUAGAAGGUACAUGAGGAUCACCCAUGUGAGAA [Laveatisce] (puzzle: Exclusion 4) | – | – | 36.2 | apparent KD of MS2 coat protein (Eterna round: R95, input ligand: FMN 200 uM): 36.5 nM; apparent KD of MS2 coat protein (Eterna round: R95, input ligand: none): 49.3 nM
15 | CCUCUGUGAGGAUAUUGGCAACACUGCACCCAAUAAAGCGCCGAGAAGGCACAUGAGGAUCACCCAUGUACGCA [Eternabot (L1) Solution 66] (Eterna round: R97, puzzle: Exclusion 4) | 22.4 | 18.4 | – | –
16 | CCUCUUGGGCAAGGAUAUCCUGCGCGGUUCCGGUUCGUGUCUGUCACAUGAGGAUCACCCAUGUGGGAGAAGGUGCCUGCGGUC [Design 78] (Eterna round: R96, puzzle: Exclusion NG 2) | – | – | – | apparent KD of MS2 coat protein [1]: 12 nM
